B1: Endo180 D1-4-Fc (dimeric Fc-tagged Endo180 domains 1-4) (Fc fusion)
chain: APLADAALPEPNVFLIFSHGLQGCLEAQGGQVRVTPACNTSLPAQRWKWVSRNRLFNLGTMQCLGTGWPGTNTTASLGMYECDREALNLRWHCRTLGDQLSLLLGARTSNISKPGTLERGDQTRSGQWRIYGSEEDLCALPYHEVYTIQGNSHGKPCTIPFKYDNQWFHGCTSTGREDGHLWCATTQDYGKDERWGFCPIKSNDCETFWDKDQLTDSCYQFNFQSTLSWREAWASCEQQGADLLSITEIHEQTYINGLLTGYSSTLWIGLNDLDTSGGWQWSDNSPLKYLNWESDQPDNPSEENCGVIRTESSGGWQNRDCSIALPYVCKKKPNATAEPTPPDRWANVKVECEPSWQPFQGHCYRLQAEKRSWQESKKACLRGGGDLVSIHSMAELEFITKQIKQEVEELWIGLNDLKLQMNFEWSDGSLVSFTHWHPFEPNNFRDSLEDCVTIWGPEGRWNDSPCNQSLPSICKKAGQLSQG
modifications: natively glycosylated (predicted N-linked sites Asn69, Asn102, Asn140, Asn364, Asn497)
B2: Endo180 D3-4-Fc (Fc fusion, human)
chain: APLAKSNDCETFWDKDQLTDSCYQFNFQSTLSWREAWASCEQQGADLLSITEIHEQTYINGLLTGYSSTLWIGLNDLDTSGGWQWSDNSPLKYLNWESDQPDNPSEENCGVIRTESSGGWQNRDCSIALPYVCKKKPNATAEPTPPDRWANVKVECEPSWQPFQGHCYRLQAEKRSWQESKKACLRGGGDLVSIHSMAELEFITKQIKQEVEELWIGLNDLKLQMNFEWSDGSLVSFTHWHPFEPNNFRDSLEDCVTIWGPEGRWNDSPCNQSLPSICKKAGQLSQG
notes: Endo180 (uPARAP), human, domains 3-4 (CTL1, CTL2), residues 231-513 of UniProt Q9UBG0; also called D3-4-Fc construct; source: HEK293 c18, transfected, secreted into serum-free medium, purified (protein A); not shown: Fc (IgG2), C-terminal, kept

Key:
[1] = target: T1, type I collagen (native, triple-helical; rat tail) (rat, UniProt P02454 152-1207; P02466 86-1125); assay: ELISA; solid-phase binding assay: collagen or gelatin coated at 10 μg/ml on Nunc MaxiSorp plates; Fc-tagged Endo180 proteins in PBS with 0.1 mg/ml κ-casein and 0.05% Tween 20 added for 2 hr (titration, or fixed 1 μM in Figure 6A); detected with anti-human IgG-HRP, 492 nm; single-site fit; conditions: both partners purified
T1 construct: collagen alpha-1(I) chain, rat; collagen alpha-2(I) chain, rat; also called native collagen; rat-tail type I collagen; source: bought: Sigma (rat-tail type I collagen)

[2] = target: T2, gelatin (heat-denatured rat-tail type I collagen) (rat, UniProt P02454 152-1207; P02466 86-1125); assay: as above; conditions: both partners purified
T2 construct: collagen alpha-1(I) chain, rat, heat-denatured; collagen alpha-2(I) chain, rat, heat-denatured; Same chains as m3 but denatured (unfolded single chains) before coating or coupling; also called denatured collagen; source: bought: Sigma (rat-tail type I collagen), 1 mg/ml in 100 mM acetic acid heated to 67°C for 30 min
T2 sequence (P02454 152-1207, chain 1 of 2): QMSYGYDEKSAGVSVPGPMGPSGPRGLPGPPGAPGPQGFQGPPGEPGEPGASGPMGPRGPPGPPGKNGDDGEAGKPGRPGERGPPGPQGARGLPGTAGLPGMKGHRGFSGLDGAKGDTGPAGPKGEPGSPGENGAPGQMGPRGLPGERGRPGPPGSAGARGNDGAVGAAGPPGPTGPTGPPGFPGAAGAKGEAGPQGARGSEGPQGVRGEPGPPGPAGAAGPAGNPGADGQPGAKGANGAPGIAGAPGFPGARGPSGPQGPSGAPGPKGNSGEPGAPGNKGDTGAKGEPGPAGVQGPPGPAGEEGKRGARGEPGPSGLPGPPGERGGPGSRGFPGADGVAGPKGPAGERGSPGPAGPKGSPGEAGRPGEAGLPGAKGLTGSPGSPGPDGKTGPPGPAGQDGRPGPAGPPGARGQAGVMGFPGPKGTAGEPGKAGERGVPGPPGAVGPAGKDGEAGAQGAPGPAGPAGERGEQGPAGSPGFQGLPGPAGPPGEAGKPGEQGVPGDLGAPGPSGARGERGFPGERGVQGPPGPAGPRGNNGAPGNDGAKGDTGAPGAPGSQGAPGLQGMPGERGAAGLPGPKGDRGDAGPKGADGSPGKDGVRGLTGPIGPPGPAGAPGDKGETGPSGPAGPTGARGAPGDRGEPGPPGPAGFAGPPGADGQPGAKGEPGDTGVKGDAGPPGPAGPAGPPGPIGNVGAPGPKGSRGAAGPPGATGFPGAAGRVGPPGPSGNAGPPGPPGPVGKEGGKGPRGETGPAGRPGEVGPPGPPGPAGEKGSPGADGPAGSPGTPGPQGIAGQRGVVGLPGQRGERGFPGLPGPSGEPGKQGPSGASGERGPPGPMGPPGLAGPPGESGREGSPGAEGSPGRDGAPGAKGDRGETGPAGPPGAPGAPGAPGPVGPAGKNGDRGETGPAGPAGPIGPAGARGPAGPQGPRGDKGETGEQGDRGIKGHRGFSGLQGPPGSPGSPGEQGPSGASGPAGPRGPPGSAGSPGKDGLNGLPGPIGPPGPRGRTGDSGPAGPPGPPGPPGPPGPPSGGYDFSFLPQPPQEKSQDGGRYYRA
T2 sequence (P02466 86-1125, chain 2 of 2): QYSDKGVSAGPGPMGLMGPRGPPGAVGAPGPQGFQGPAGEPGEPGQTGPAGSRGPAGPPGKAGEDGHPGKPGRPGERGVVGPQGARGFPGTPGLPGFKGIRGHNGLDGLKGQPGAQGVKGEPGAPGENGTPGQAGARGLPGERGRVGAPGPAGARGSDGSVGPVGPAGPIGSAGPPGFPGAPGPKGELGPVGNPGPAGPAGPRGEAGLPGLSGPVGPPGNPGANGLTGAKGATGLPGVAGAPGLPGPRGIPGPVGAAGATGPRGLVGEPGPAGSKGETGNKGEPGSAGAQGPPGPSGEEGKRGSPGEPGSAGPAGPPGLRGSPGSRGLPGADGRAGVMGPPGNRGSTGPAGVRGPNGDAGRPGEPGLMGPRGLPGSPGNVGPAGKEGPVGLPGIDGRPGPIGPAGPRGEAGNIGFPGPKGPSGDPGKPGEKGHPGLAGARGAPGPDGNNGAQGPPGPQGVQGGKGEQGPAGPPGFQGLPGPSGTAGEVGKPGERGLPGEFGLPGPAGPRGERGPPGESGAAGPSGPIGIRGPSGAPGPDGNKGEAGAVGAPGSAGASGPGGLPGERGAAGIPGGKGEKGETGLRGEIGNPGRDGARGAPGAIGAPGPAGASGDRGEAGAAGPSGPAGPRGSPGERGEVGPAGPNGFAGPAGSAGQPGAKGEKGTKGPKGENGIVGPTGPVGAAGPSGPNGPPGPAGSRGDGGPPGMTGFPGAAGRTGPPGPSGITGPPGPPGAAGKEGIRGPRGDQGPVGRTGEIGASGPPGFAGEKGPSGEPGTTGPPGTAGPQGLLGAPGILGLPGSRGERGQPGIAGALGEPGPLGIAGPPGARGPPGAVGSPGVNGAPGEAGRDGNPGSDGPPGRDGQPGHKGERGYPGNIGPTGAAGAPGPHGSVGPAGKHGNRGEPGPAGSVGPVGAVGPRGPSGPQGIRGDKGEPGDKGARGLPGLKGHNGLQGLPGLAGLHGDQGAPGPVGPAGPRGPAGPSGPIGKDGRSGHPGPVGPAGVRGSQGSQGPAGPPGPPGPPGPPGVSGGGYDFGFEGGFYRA

T1 sequence (P02454 152-1207, chain 1 of 2): as the sequence (P02454 152-1207, chain 1 of 2) above
T1 sequence (P02466 86-1125, chain 2 of 2): as the sequence (P02466 86-1125, chain 2 of 2) above

| Binder | Kd [1] | Kd [2] |
| --- | --- | --- |
| B1 | 2.5 ± 0.25 µM | 0.42 ± 0.03 µM |
| B2 | 3.7 ± 0.43 µM | 2.2 ± 0.15 µM |
